The results in this text go back to patent US20140120095A1 (Boehringer Ingelheim, published 2014).

B1: recombinant mouse VEGF164 (ligand, UniProt Q00731-2 27-190, looked up)
chain: APTTEGEQKSHEVIKFMDVYQRSYCRPIETLVDIFQEYPDEIEYIFKPSCVPLMRCAGCCNDEALECVPTSESNITMQIMRIKPHQSQHIGEMSFLQHSRCECRPKKDRTKPENHCEPCSERRKHLFVQDPQTCKCSCKNTDSRCKARQLELNERTCRCDKPRR
modifications: biotinylated as the labelled ligand of the mVEGF164/mVEGFR2 AlphaScreen
notes: also called mVEGF164; rmVEGF164

In assay [1] the target is T1, mouse VEGFR2-huFc (mouse, UniProt P35918 20-762, limits assumed).
T1 construct: also called mVEGFR2-hFc; mVEGFR2-Fc
T1 sequence (P35918 20-762 limits assumed): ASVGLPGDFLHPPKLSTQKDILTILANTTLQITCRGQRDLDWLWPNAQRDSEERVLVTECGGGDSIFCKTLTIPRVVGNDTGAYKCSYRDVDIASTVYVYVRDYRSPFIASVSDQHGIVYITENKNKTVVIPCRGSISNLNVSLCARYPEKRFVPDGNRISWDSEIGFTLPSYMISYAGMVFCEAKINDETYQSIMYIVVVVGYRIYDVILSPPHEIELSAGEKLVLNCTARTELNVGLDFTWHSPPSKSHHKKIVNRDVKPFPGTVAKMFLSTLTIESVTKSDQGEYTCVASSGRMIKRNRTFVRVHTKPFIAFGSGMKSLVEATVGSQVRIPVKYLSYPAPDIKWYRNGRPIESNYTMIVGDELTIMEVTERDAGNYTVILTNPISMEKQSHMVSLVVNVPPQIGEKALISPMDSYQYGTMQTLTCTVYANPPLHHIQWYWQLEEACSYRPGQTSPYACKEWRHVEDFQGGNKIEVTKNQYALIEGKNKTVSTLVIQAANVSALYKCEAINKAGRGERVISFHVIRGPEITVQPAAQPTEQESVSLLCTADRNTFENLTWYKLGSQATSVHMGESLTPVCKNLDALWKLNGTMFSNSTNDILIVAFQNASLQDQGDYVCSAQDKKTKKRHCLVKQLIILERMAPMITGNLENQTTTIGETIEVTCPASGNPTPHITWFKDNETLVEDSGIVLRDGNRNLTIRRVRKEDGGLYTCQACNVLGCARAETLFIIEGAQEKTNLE
As to the kind of experiment: AlphaScreen, unlabelled mVEGF164 against biotinylated mVEGF164 on mVEGFR2-hFc. The procedure:
(§1) Finally, streptavidin donor beads (20 μg/ml) are added and after 1 hour of incubation fluorescence is measured on the Envision microplate reader.
For orientation: Bead proximity is the source of the signal in Alpha formats.

Assay [2] concerns the target T2, human DLL1 (human, UniProt O00548 18-545, limits assumed).
T2 construct: also called hDLL1
T2 sequence (looked up): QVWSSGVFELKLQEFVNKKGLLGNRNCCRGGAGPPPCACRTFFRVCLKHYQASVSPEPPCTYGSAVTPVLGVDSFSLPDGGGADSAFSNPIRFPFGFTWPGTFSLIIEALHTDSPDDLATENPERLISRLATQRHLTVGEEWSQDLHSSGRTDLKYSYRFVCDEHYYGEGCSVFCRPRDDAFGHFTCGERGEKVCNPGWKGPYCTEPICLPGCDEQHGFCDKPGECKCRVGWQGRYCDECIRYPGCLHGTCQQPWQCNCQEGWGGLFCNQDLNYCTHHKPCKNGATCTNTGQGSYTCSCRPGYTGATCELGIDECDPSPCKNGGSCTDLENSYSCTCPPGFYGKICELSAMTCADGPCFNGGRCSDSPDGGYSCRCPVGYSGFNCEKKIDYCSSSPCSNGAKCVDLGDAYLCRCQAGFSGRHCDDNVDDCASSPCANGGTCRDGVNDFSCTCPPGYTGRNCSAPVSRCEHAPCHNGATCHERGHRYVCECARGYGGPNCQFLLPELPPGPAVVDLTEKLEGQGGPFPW
As to the kind of experiment: ELISA, coated human DLL1. The procedure:
(§2) Absence of binding to homologous ligands human DLL1 and human Jagged-1 is assessed via solid phase binding assay (ELISA). In brief, human DLL1 (Alexis, San Diego, Calif., USA) and human Jagged-1 (Alexis, San Diego, Calif., USA) are coated overnight at 4° C. at 1 μg/mL in a 96-well MaxiSorp plate (Nunc, Wiesbaden, Germany). Wells are blocked with a casein solution (1% in PBS). VHHs are applied as dilution series and binding is detected using a mouse anti-myc (Roche) and an anti-mouse-AP conjugate (Sigma, St. Louis, Mo., USA).

The target of assay [3] is T3, recombinant human DLL4 (human, UniProt Q9NR61 25-522).
T3 construct: also called rhDLL4; hDLL4
As to the kind of experiment: competition AlphaScreen, biot-hDLL4/hNotch1-Fc; partial inhibitor.

Assay [4] addresses T3, recombinant human DLL4. The assay is described as follows: Biacore off-rate, periplasmic extract. (SPR reads the build-up and loss of mass on a sensor chip optically.)
Assay [5] has as its target T4, human Jagged-1 (human, UniProt P78504 34-1067, limits assumed).
T4 construct: also called hJagged-1; hJAG1
The assay is described as follows: ELISA, coated human Jagged-1. The procedure:
as §2
For orientation: In an ELISA, binding on a coated surface is turned into a signal by an enzyme label.

Assay [6] deals with T5, human DLL4 overexpressed on cells (human, UniProt Q9NR61 27-685).
T5 construct: full length human DLL4 on CHO or HEK293 cells; also called CHO-hDLL4; CHO-hDII4
As to the kind of experiment: competitive FMAT, hNotch1-Fc on CHO-hDLL4.

For assay [7], the target named is T3, recombinant human DLL4. As to the kind of experiment: hDLL4 ELISA screen, periplasmic extract.
In assay [8] the target is T6, recombinant mouse DLL4 (mouse, UniProt Q9JI71 27-532).
T6 construct: extracellular domain; also called rmDLL4; mDLL4
T6 sequence (Q9JI71 27-532): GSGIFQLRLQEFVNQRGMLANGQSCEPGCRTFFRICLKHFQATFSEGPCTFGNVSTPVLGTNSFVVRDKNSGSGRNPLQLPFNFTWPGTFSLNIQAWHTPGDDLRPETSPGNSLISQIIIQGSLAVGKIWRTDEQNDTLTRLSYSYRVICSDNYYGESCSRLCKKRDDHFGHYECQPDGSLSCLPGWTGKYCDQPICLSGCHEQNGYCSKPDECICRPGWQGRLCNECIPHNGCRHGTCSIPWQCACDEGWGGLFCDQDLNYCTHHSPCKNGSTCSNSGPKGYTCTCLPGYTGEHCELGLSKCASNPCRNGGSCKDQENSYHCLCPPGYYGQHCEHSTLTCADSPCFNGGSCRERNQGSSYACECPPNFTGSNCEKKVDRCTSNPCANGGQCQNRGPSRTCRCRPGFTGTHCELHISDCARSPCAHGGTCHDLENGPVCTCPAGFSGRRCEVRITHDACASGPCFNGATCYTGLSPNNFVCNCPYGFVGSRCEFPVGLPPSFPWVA
The assay is described as follows: binding ELISA, coated rmDLL4. The procedure:
(§3) In order to determine cross-reactivity to mouse DII4 a binding ELISA is performed. […] Wells are blocked with a casein solution (1% in PBS). VHHs are applied as dilution series and binding is detected using a mouse anti-myc (Roche) and an anti-mouse-AP conjugate (Sigma, St Louis, Mo., USA) (FIG. 7 A-H). As reference, binding to human DII4 is measured.

In assay [9] the target is T3, recombinant human DLL4. The assay is described as follows: binding ELISA, coated rhDLL4. The procedure: as §3
For assay [10], the target named is T7, recombinant human VEGF165 (human, UniProt P15692-4 27-191, biotinylated in the competition assays).
T7 construct: Bought protein; also called hVEGF165; rhVEGF165
The assay is described as follows: AlphaScreen, hVEGF165/hVEGFR1-Fc competition. Also on record: % inhibition: concentration or dose not given beside the values. The procedure:
(§4) Finally, streptavidin donor beads (20 μg/ml) are added and after 1 hour of incubation in the dark, fluorescence is measured on the Envision microplate reader.
Target sequence in this assay (P15692 other isoform, or with tags, fused parts or gaps): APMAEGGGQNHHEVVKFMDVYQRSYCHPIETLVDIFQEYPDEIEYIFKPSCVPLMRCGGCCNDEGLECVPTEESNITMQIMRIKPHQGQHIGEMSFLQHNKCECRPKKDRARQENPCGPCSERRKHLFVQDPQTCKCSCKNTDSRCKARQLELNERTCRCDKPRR

The target in assay [11] is T7, recombinant human VEGF165. As to the kind of experiment: ELISA, hVEGF165/hVEGFR1-Fc competition. Also on record: % inhibition: concentration or dose not given beside the values.
Target sequence in this assay (P15692 other isoform, or with tags, fused parts or gaps): as above
In assay [12] the target is T7, recombinant human VEGF165. As to the kind of experiment: AlphaScreen, hVEGF165/hVEGFR2-Fc competition, -HSA.
In assay [13] the target is T8, VEGF (used to stimulate HUVEC cells) (UniProt P15692-4 27-191, limits assumed). As to the kind of experiment: cell-based or functional assay.
T8 sequence (P15692 other isoform, or with tags, fused parts or gaps limits assumed): as the sequence (P15692 other isoform, or with tags, fused parts or gaps) above
Assay [14] addresses B1. The assay is described as follows: binding ELISA, coated rmVEGF164. The procedure: Cross-reactivity to mouse VEGF164 is determined using a binding ELISA. […] Wells are blocked with a casein solution (1% in PBS). […] A mouse VEGF164 reactive mAb is included as positive control.
The target of assay [15] is T7, recombinant human VEGF165. As to the kind of experiment: SPR Biacore, immobilised hVEGF165, two state reaction model.
Target sequence in this assay (P15692 other isoform, or with tags, fused parts or gaps): as above
In assay [16] the target is T7, recombinant human VEGF165. As to the kind of experiment: AlphaScreen, hVEGF165/hVEGFR2-Fc competition. The procedure:
as §4
Target sequence in this assay (P15692 other isoform, or with tags, fused parts or gaps): as above

The target in assay [17] is T7, recombinant human VEGF165. The assay is described as follows: AlphaScreen, hVEGF165/hVEGFR1-Fc competition, -HSA.
Assay [18] concerns the target T7, recombinant human VEGF165. As to the kind of experiment: AlphaScreen, hVEGF165/hVEGFR1-Fc competition. The procedure:
as §4
Target sequence in this assay (P15692 other isoform, or with tags, fused parts or gaps): as above

Assay [19] concerns the target T9, recombinant human VEGF121 (human, UniProt P15692-9 27-147).
T9 construct: also called rhVEGF121
T9 sequence (looked up): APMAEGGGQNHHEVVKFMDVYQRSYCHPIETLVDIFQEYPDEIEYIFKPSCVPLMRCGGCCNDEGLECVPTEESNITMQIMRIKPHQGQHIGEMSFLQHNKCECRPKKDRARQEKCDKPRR
As to the kind of experiment: binding ELISA, coated rhVEGF121. The procedure:
Binding to recombinant human VEGF121 is assessed via a solid phase binding ELISA. […] Wells are blocked with a casein solution (1% in PBS).

Assay [20] has as its target T8, VEGF (used to stimulate HUVEC cells). As to the kind of experiment: cell-based or functional assay. The source holds these as a separate data set.
Assay [21] addresses T7, recombinant human VEGF165. As to the kind of experiment: ELISA, hVEGF165/hVEGFR2-Fc competition. Also on record: % inhibition: concentration or dose not given beside the values.
The target in assay [22] is B1. As to the kind of experiment: AlphaScreen, mVEGF164/mVEGFR2-hFc competition. The procedure: as §1
Assay [23] concerns the target T7, recombinant human VEGF165. The assay is described as follows: AlphaScreen, hVEGF165/hVEGFR2-Fc competition, +5 uM HSA.
For assay [24], the target named is T7, recombinant human VEGF165. As to the kind of experiment: AlphaScreen, hVEGF165/hVEGFR2-Fc competition. On the set-up: % inhibition: concentration or dose not given beside the values. The procedure:
as §4

The target of assay [25] is T7, recombinant human VEGF165. The assay is described as follows: binding ELISA, coated rhVEGF165.
Target sequence in this assay (P15692 other isoform, or with tags, fused parts or gaps): as the sequence (P15692 other isoform, or with tags, fused parts or gaps) above
For assay [26], the target named is T7, recombinant human VEGF165. As to the kind of experiment: AlphaScreen, hVEGF165/hVEGFR2-Fc competition, -HSA. The source holds these as a separate data set.

Usually IC50 stands for the concentration that gives 50% inhibition. The molecule B1 registered an IC50 in [1] of 0.05 nM.

B2: DLLBII19F04 (VHH)
VHH: EVQLVESGGGLVQAEGSLRLSCAASGSTFSTYAMAWYRQAPGKQRELVAGISFDGSTHYAESVKGRFTISRDDAKNTVSLQMNSLKPEDAAVYYCYSVHPSTGFGSWGQGTQVTVSS
What is called koff is a measure of how fast the partners let go of each other. As a reminder, the EC50 is the concentration that produces a half-maximal response. Turning to B2, the binding result in assay [2] and in assay [5] was “no binding” throughout. The IC50 amounted to 0.05 nM in [3] and 33 nM in [6]. Besides, the koff in assay [4] was 0.0011 s⁻¹. Also, in [7], the “% inh” value was 98%. The EC50 turned out to be 0.8 nM in assay [8] and 0.9 nM in assay [9].

B3: VEGFBII022 (VHH, not shown: small tags and cut ends)
chain: EVQLVESGGGLVQTGDSLRLSCEVSGRTFSSYSMGWFRQAQGKEREFVVAISKGGYKYDSVSLEGRFTISKDNAKNTVYLQINSLKPEDTAVYYCASSRAYGSSRLRLADTYEYWGQGTQVTVSSGGGGSGGGSEVQLVESGGGLVQPGGSLRLSCVASGIRFMSMAWYRQAPGKHRELVARISSGGTTAYVDSVKGRFTISRDNSKNTVYLQMNSLKAEDTAVYYCNTFSSRPNPWGAGTQVTVSS
notes: Bivalent (heterodimeric) anti-VEGF VHH; also called VEGFBII23B04-9GS-5B05
As a reminder, the % inhibition is the share of the control response that was lost under treatment. As usually defined, the Kd is the equilibrium constant for the complex coming apart. As to B3, the “% inhibition” value in assay [10] was 98%; in assay [11], 89%; in [18], 100%; in [21], 100%; in assay [24], 100%. The IC50 is 9 pM in assay [10]; 0.225 nM in [11]; 0.017 nM in assay [12]; 7 pM in assay [16]; 0.07 nM in [17]; 8 pM in [18]. In addition, the IC50 amounted to 0.164 nM in [21]; 108 nM in assay [22]; 0.03 nM in assay [23]; 7 pM in assay [24]; 0.05 nM in assay [26]. The entries for the “% inh” value in [12], in [17] and in [26] were 100%, 87% and 100%, respectively. In addition, the “% inhibition, VEGF HUVEC Erk phosphorylation assay” value in assay [13] worked out at 94%. Also, the “IC50, VEGF HUVEC Erk phosphorylation assay” value in assay [13] came to 0.18 nM. In addition, the EC50 in [14] stood at 0.464 nM; in assay [19] it was 0.54 nM; in [25], 0.224 nM. In assay [15], the Kd was found to be 0.14 nM. Also, the ka1 in [15] stood at 1.2e+06 M⁻¹ s⁻¹. In addition, in assay [15], the ka2 turned out to be 0.014 s⁻¹. Also, in [15], the kd1 worked out at 0.0091 s⁻¹. In addition, in assay [15], the kd2 worked out at 0.00026 s⁻¹. The “% inhibition, VEGF HUVEC proliferation assay” value in assay [20] turned out to be 100%. Also, in assay [20], the “IC50, VEGF HUVEC proliferation assay” value worked out at 0.34 nM.
